# Measurements: paper PMC5389570
# Biological target: RPA heterotrimer (RPA70/RPA32/RPA14) (Homo sapiens) (UniProt P27694+P15927+P35244)
# Assay: EMSA
# Sequence of RPA heterotrimer (RPA70/RPA32/RPA14) (Homo sapiens) (P27694 whole entry, chain 1 of 3): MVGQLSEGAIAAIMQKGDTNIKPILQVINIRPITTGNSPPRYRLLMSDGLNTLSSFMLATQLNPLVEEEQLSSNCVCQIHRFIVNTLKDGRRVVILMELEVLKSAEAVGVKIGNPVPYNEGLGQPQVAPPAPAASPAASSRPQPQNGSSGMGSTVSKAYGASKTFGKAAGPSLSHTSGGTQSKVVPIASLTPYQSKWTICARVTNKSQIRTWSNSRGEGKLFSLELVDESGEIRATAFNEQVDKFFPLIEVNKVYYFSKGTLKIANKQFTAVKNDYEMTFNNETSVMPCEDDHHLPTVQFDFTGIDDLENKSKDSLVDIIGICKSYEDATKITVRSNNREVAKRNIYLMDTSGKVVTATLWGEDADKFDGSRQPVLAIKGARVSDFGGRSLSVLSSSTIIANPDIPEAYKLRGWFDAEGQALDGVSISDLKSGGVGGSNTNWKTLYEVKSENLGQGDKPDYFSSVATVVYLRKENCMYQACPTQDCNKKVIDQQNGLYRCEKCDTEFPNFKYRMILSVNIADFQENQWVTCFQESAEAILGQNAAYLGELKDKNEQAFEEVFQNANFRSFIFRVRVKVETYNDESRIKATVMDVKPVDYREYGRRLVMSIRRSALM
# Sequence of RPA heterotrimer (RPA70/RPA32/RPA14) (Homo sapiens) (P15927 whole entry, chain 2 of 3): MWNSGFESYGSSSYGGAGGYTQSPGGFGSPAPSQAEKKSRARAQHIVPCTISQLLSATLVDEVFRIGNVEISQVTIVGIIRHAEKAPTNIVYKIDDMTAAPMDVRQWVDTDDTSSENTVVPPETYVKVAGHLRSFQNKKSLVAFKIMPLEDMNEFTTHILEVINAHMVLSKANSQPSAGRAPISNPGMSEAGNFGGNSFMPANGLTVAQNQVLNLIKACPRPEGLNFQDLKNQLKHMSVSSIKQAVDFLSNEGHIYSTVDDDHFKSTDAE
# Sequence of RPA heterotrimer (RPA70/RPA32/RPA14) (Homo sapiens) (P35244 whole entry, chain 3 of 3): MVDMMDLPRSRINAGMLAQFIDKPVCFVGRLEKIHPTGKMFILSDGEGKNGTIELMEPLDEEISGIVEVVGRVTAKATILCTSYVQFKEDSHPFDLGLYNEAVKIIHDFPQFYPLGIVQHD
sequence,measurement,value
TTTTTTTTTTTTTTTTTTTTTTTTTTTTTTTTTTTTTTTTGGTCGGAGTTAGAGTAGGGTCGGAGTTAGAGTAGCCAGTA [S8 (80-mer)],binding signal (fold vs RPA alone),2
